Test results as given in patent publication US9217013B2, “Treatment of amyloidoses using myelin basic protein and fragments thereof” (The Research Foundation for the State University of New York, priority 2008, dated 2015).
Positions count from the first letter of the chain named. Names may count otherwise.

Columns and labels:
[1] = molecular target: T1, fibrillar Aβ (Homo sapiens, UniProt P05067, E693Q); assay: Solid-phase binding assay, competition against biotinylated sAβPPα
T1 construct: made in house; host or cells: chemical synthesis (solid-phase Fmoc)
Procedure: Aβ peptides or amylin were assembled into fibrils as described above. […] Two μg of each fibrillar Aβ peptide, fibrillar amylin, or ovalbumin in 100 μl of phosphate-buffered saline (PBS) were dried in a 96-well microtiter plate (Corning, Cambridge, Mass.) overnight at 37° C. The wells were rinsed with PBS three times and blocked with 100 μl per well PBS containing 1 mg/ml bovine serum albumin (BSA) for 1 hour at room temperature. After rinsing three times with PBS, known concentrations of biotinylated sAβPPα in PBS containing 0.1 mg/ml BSA were incubated in triplicate (100 μl per well) for 1 hour at room temperature. After rinsing the wells with PBS three times, 100 μl of streptavidin conjugated to horseradish peroxidase in PBS containing 0.1 mg/ml BSA (1:800) was added for 1 hour at room temperature. The binding of biotinylated sAβPPα was detected using the colorimetric substrate o-phenylenediamine dihydrocholride as described by the manufacturer (InVitrogen). Briefly, the substrate was diluted in buffer (0.1 M sodium citrate, pH 4.5) to a final concentration of 1 mg/ml. H202 was added to a final concentration of 0.012% immediately before 100 μl of the substrate was added to each microtiter well. […] The conversion of the colorimetric substrate was measured at a wavelength of 490 nm using a Molecular Dynamics Vmax kinetic plate reader (Sunnyvale, Calif.). […]

[2] = molecular target: T2, HCSM cell surface fibrillar Aβ (Homo sapiens, UniProt P05067, E693Q); assay: Endogenous sAβPPα binding to fibrillar Aβ on HCSM cell surface; assay type: cell-based; conditions: AβPP-(105-119) at higher concentrations
T2 construct: made in house; host or cells: chemical synthesis (solid-phase Fmoc)

[3] = molecular target: T3, fibrillar Dutch-type Aβ-(1-40) (Homo sapiens, UniProt P05067, E693Q); assay: Solid-phase binding of GST-AβPP-(18-119) proteins to fibrillar Dutch-type Aβ; conditions: for binding to fibrillar Aβ compared with wild-type GST-AβPP-(18-119): alanine substitution mutants
T3 construct: made in house; host or cells: chemical synthesis (solid-phase Fmoc)
Procedure: (§1) Aβ peptides or amylin were assembled into fibrils as described above. […] Two μg of each fibrillar Aβ peptide, fibrillar amylin, or ovalbumin in 100 μl of phosphate-buffered saline (PBS) were dried in a 96-well microtiter plate (Corning, Cambridge, Mass.) overnight at 37° C. The wells were rinsed with PBS three times and blocked with 100 μl per well PBS containing 1 mg/ml bovine serum albumin (BSA) for 1 hour at room temperature. After rinsing three times with PBS, known concentrations of biotinylated sAβPPα in PBS containing 0.1 mg/ml BSA were incubated in triplicate (100 μl per well) for 1 hour at room temperature. After rinsing the wells with PBS three times, 100 μl of streptavidin conjugated to horseradish peroxidase in PBS containing 0.1 mg/ml BSA (1:800) was added for 1 hour at room temperature. The binding of biotinylated sAβPPα was detected using the colorimetric substrate o-phenylenediamine dihydrocholride as described by the manufacturer (InVitrogen). Briefly, the substrate was diluted in buffer (0.1 M sodium citrate, pH 4.5) to a final concentration of 1 mg/ml. H202 was added to a final concentration of 0.012% immediately before 100 μl of the substrate was added to each microtiter well. The solution was developed for =30 min at room temperature and quenched by the addition of 50 μl of 4N H2SO4 to each well. The conversion of the colorimetric substrate was measured at a wavelength of 490 nm using a Molecular Dynamics Vmax kinetic plate reader (Sunnyvale, Calif.).
(§2) Bound secondary antibody was detected using the colorimetric substrate as described above.
However, this small peptide was not nearly as effective as the larger, recombinantly expressed AβPP-(18-119) in binding to fibrillar Aβ. Therefore, alanine-scanning mutagenesis studies of the AβPP-(105-119) sequence within AβPP-(18-119) were performed to further identify key epitopes important in facilitating its binding to fibrillar Aβ. Alanine residues were introduced from Cys^105 through Cys^117 of AβPP-(18-119) by site-directed mutagenesis of the AβPP-(18-119) cDNA. Each mutant AβPP-(18-119) cDNA was expressed as a GST fusion protein and purified, and the concentrations were carefully determined by quantitative immunoblotting as described in “Experimental Procedures”.

[4] = test system: HCSM cells; assay: HCSM cell viability (live/dead assay) after Dutch-type Aβ-(1-40); assay type: cell-based, human; conditions: 25 μM Dutch-type Aβ-(1-40), 1 μM protein, 6 days at 37° C.
Source text: Primary cultures of HCSM cells were established and characterized. Two lines of HCSM cells were used in these studies. One was derived from a AD patient and the other was derived from a person control. All HCSM cells were used between passages 4-7 and maintained in 24-well tissue culture dishes with Dulbecco's […] containing 10% fetal bovine serum (Gemini Bio-Products, Calabasas, Calif.), non-essential amino acids, and antibiotics (Invitrogen). For experiments, near-confluent cultures of HCSM cells were placed in serum-free medium containing 0.1% BSA, non-essential amino acids, and antibiotics overnight prior to treatment. Freshly solubilized Dutch-type Aβ-(1-40) at a final concentration of 25 μM was added to the cultures in serum-free medium and incubated at 37° C. for 6 days. Cells were routinely viewed and photographed using an Olympus IX70 phase-contrast microscope. Cell viability was quantified using a fluorescent live/dead cell assay following the manufacturer's protocol (Molecular Probes, Eugene, Oreg.). The number of live and dead cells were counted from several fields (n=4) from at least three separate wells for each experiment.
Incubation of HCSM cells with pathogenic Dutch-type Aβ-(1-40) leads to cell death. […]

[5] = molecular target: T4, fibrillar wild-type Aβ-(1-42) (Homo sapiens, UniProt P05067); assay: Solid-phase binding of GST-AβPP-(18-119) proteins to fibrillar wild-type Aβ-(1-42)
T4 construct: made in house; host or cells: chemical synthesis (solid-phase Fmoc)
Procedure: as §1, with “H202 was added to a final concentration of 0.012% immediately before 100 μl of the substrate was added to each microtiter well. The solution was developed for =30 min at room temperature and quenched by the addition of 50 μl of 4N H2SO4 to each well.” left out
as §2

[6] = molecular target: T5, fibrillar amylin peptide (Homo sapiens, UniProt P10997); assay: Solid-phase binding of GST-AβPP-(18-119) proteins to fibrillar amylin
T5 construct: Amylin peptide was obtained from Bachem (San Carlos, Calif.); purchased Bachem (San Carlos, Calif.)
T5 sequence (P10997 34-70 limits assumed): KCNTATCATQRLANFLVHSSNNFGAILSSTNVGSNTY
Procedure: as §1, with “H202 was added to a final concentration of 0.012% immediately before 100 μl of the substrate was added to each microtiter well. The solution was developed for =30 min at room temperature and quenched by the addition of 50 μl of 4N H2SO4 to each well.” left out
as §2

[7] = test system: Aβ; assay: Recombinant MBP regions tested for ability to bind Aβ and inhibit fibrillogenesis; assay type: binding; conditions: Aβ form not stated
Procedure: (§3) Using recombinant methodology to express and purify regions of the 18.5 kDa human MBP protein and test their abilities to bind Aβ and inhibit fibrillogenesis, cDNAs were prepared for the following regions of MBP shown in FIG. 3. The cDNAs for MBP fragments were cloned into pTYB11 plasmids containing an ampr gene and transformed into competent E. coli BL21 DE3 cells. Expression of cDNAs in this vector results in a fusion protein containing a chitin binding domain (CBD) as well as a self-cleavable intein protein from S. cerevisiae. CBD-Intein-MBP fusion proteins were captured on chitin beads from the resulting cell lysates. MBP protein fragments were eluted by inducing the cleavage between the C-terminus of the intein and the N-terminus of MBP by exposure to dithiothreitol. […] MBP was further purified by cation exchange chromatography on CM52 resin, resulting in a >95% pure protein preparations. Each of the four MBP fragments were tested for binding to Dutch/Iowa Aβ40 and wild-type Aβ42 by surface plasmon resonance (FIG. 4).
Such a motif, KRGX1X2X3X4X5X6HP (SEQ ID NO:1), was found in MBP 33-64 and in AβPP 54-64. Specifically, the motif in MBP spans residues 54-64. […]

[8] = molecular target: Aβ40DI (Homo sapiens, UniProt P05067, D694N/E693Q); assay: Thioflavin T fluorescence assay of Aβ40DI fibril formation; assay type: biochemical; conditions: 12.5 μM Aβ40DI, 1.56 μM protein, PBS, 37° C.
Procedure: FIG. 16 Thioflavin T analysis of inhibition of CAA mutant Aβ fibril formation by MBP. Aβ40DI at a concentration of 12.5 μM in PBS in the absence (□) or presence of 1.56 μM MBP(□) or bovine a-lactalbumin (Lalb; □) as a control. At specific time points, aliquots were collected from each sample and analyzed by thioflavin T binding and fluorescence to determine fibrillar assembly. Data represent the means±S.D. of triplicate samples. A.U., arbitrary units.
The Aβ B binding properties of the exemplary fragments of MBP described herein were determined in a thioflavin T fluorescence assay as follows: Lyophilized Aβ peptides were first resuspended with Me2SO to 2.5 mM, diluted to 12.5 μM in PBS, and then incubated at 37° C. with rocking either alone or with 1.56 μM MBP or bovine α-lactalbumin. Control samples containing 0.5% Me2SO and 1.56 μM MBP or lactalbumin in PBS were also included. At each time point, 100 μl samples of each reaction were placed in a 96-well microplate in triplicate, and 5 μl of 100 µM thioflavin T was added. The plate was mixed and incubated at 22° C. in the dark for 10 min. Fluorescence was measured at 490 nm with an excitation wavelength of 446 nm in a SpectraMax spectrofluorometer (Molecular Devices, Sunnyvale, Calif.) using SoftMax Pro control software. It is apparent that the method enables persons of skill in the art to determine the binding properties of MBP, variants thereof, and fragments thereof for any Aβ-peptide, including mutants thereof.

[9] = molecular target: Dutch/Iowa CAA mutant Aβ40 (Aβ40DI) (Homo sapiens, UniProt P05067, D694N/E693Q); assay: Surface plasmon resonance binding to immobilized Dutch/Iowa Aβ40
Procedure: All runs were performed on a Biacore 2000 instrument using 10 mM HEPES (pH 7.4), 150 mM NaCl, 3 mM EDTA, and 0.005% (v/v) Tween 20 as running buffer and diluent. Streptavidiri was conjugated to the surface of three flow cells of a CM5 chip at 10 μl/min using amine coupling chemistry to a final average response level of 1890.2 response units. N-terminally biotinylated Aβ peptides were resuspended in Me2SO to 2.5 mM and serially diluted to 13 nM immediately before application. Biotinylated Aβ40WT and Aβ40DI were bound to individual flow cells at 10 μl/min to achieve an average relative response level of 157.1 response units, leaving flow cell 1 as reference. […] The resultant Rmax of these surfaces was ˜700 response units with MBP as analyte. Purified MBP was passed over all four flow cells at 5, 10, 25, 50, and 100 nM at a flow rate of 30 μl/min for kinetic measurements. […] Surfaces were regenerated with 0.2 M glycine (pH 2.0) and 150 mM NaCl between runs. The resulting sensorgrams were analyzed by BIAanalysis software. Triplicate concentration series were used for each surface.
as §3

## AβPP-(102-116): synthesized overlapping 15-mer peptide of AβPP residues 102-116 (RKQCKTHPHFVIPYR)
[1]; data not shown
  competing activity of overlapping 15-mer peptides: approximately half that of AβPP-(105-119)

## AβPP-(105-119): synthesized 15 amino acid peptide spanning residues 105-119 of AβPP (CKTHPHFVIPYRCLV)
[2]
  inhibition of endogenous sAβPPα binding to HCSM cell surface fibrillar Aβ: partially diminish
[1]; 1 mM peptide
  competition of biotinylated sAβPPα binding to fibrillar Aβ: ≈ 80%

## C117A mutant GST-AβPP-(18-119): GST-AβPP-(18-119) with alanine substitution at Cys117
[3]
  binding to fibrillar Aβ compared with wild-type GST-AβPP-(18-119): markedly diminished binding
[3]; listed as C117A
  binding to fibrillar Aβ compared with wild-type GST-AβPP-(18-119): substantially affects

## F111A
[3]
  binding to fibrillar Aβ compared with wild-type GST-AβPP-(18-119): little or no effect

## GST-AβPP-(18-119): glutathione S-transferase fusion protein of AβPP residues 18-119, wild-type
[2]
  inhibition of endogenous sAβPPα binding to HCSM cell surface fibrillar Aβ: completely inhibited
[4]
  Aβ-induced HCSM cell death: < 10%

## H110A mutant GST-AβPP-(18-119): GST-AβPP-(18-119) with alanine substitution at His110
[5]
  binding to fibrillar wild-type Aβ-(1-42) compared with wild-type GST-AβPP-(18-119): considerably reduced binding
[4]
  prevention of Aβ-induced HCSM cell death: incapable of preventing the cytotoxic effects
[3]
  fibrillar Aβ binding compared with wild-type GST-AβPP-(18-119): < 10%
[3]; listed as H110A
  binding to fibrillar Aβ compared with wild-type GST-AβPP-(18-119): markedly decreased binding
[3]; listed as His^110
  binding to fibrillar Aβ compared with wild-type GST-AβPP-(18-119): highly diminished
[6]
  binding to fibrillar amylin peptide compared with wild-type GST-AβPP-(18-119): considerably reduced binding

## I113A: GST-AβPP-(18-119) with alanine substitution at Ile113
[5]
  binding to fibrillar wild-type Aβ-(1-42) compared with wild-type GST-AβPP-(18-119): considerably reduced binding
[3]
  binding to fibrillar Aβ compared with wild-type GST-AβPP-(18-119): markedly decreased binding
[3]; listed as Ile^113
  binding to fibrillar Aβ compared with wild-type GST-AβPP-(18-119): highly diminished
[6]
  binding to fibrillar amylin peptide compared with wild-type GST-AβPP-(18-119): considerably reduced binding

## MBP 50-64: MBP residues 50-64, RGAPKRGSGKDSHHP (SEQ ID NO: 51)
[7]
  abilities to bind Aβ and inhibit fibrillogenesis: carries all the binding activity

## P109A
[3]
  binding to fibrillar Aβ compared with wild-type GST-AβPP-(18-119): little or no effect

B1: MBP1 ΔKRG: MBP1 mutant with alanine substitutions in the KRG region (residues 54-56) (protein)
chain: MASQKRPSQRHGSKYLATASTMDHARHGFLRPHRDTGILDSIGRFFGGDRGAPAAASGKDSHHP
[8]
  inhibition of Aβ40DI fibril assembly (thioflavin T): lack fibril inhibition
[9]
  binding to Dutch/Iowa Aβ40 (Aβ40DI) by surface plasmon resonance: do not bind

B2: MBP1 S57A (protein)
chain: B1 chain with A54K, A55R, A56G, S57A
[9]
  binding to Dutch/Iowa Aβ40 (Aβ40DI) by surface plasmon resonance: does bind

B3: MBP1 ΔHP: MBP1 mutant with alanine substitutions at HP (residues 63-64) (protein)
chain: B1 chain with A54K, A55R, A56G, H63A, P64A
[8]
  inhibition of Aβ40DI fibril assembly (thioflavin T): lack fibril inhibition
[9]
  binding to Dutch/Iowa Aβ40 (Aβ40DI) by surface plasmon resonance: do not bind
